In assay [1] the target is FAM-labeled integrin β3 peptide (human). As to the kind of experiment: fluorescence polarisation. Background: Fluorescence polarisation rises when a labelled molecule tumbles more slowly, as on binding a larger partner.
Assay [2] addresses FITC-labeled integrin β2 peptide representing both the JM and the NPxY/F regions (human). As to the kind of experiment: fluorescence polarisation.

The term Kd denotes a measure of binding affinity in units of concentration. In assay [1], “THD(D397R) (from UniProt P26039 1-405) (domain or fragment)” returned a fold increase in affinity over wild-type THD of 2 fold. The substance also yielded a Kd in assay [2] greater than 100 µM. As to “talin head protein THD405d (residues 1-405, lacking F1-loop) (from UniProt P26039 1-405) (domain or fragment)”, the figures for the Kd in assay [1] and in assay [2] were 4.4 µM and 31.9 µM, respectively.

With “THD(D397K) (from UniProt P26039 1-405) (domain or fragment)”, the fold increase in affinity over wild-type THD in assay [1] amounted to 2 fold.

(Values after doi:10.1101/2024.05.28.596271.)
